Measurements taken from patent US20090202543A1 (ONCOTHERAPY SCIENCE, published 2009).

Molecular target: T1, B7330N-myc (myc-tagged B7330N expressed from pcDNA3.1-B7330N-myc in COS-7 cells) (human, UniProt Q8NCL4 1-622)
T1 construct: Expressed by transfection in COS-7 cells and tested in cell lysates; also called GALNT6; not shown: myc-his tag from the pcDNA3.1-myc-his vector (Invitrogen)
T1 sequence: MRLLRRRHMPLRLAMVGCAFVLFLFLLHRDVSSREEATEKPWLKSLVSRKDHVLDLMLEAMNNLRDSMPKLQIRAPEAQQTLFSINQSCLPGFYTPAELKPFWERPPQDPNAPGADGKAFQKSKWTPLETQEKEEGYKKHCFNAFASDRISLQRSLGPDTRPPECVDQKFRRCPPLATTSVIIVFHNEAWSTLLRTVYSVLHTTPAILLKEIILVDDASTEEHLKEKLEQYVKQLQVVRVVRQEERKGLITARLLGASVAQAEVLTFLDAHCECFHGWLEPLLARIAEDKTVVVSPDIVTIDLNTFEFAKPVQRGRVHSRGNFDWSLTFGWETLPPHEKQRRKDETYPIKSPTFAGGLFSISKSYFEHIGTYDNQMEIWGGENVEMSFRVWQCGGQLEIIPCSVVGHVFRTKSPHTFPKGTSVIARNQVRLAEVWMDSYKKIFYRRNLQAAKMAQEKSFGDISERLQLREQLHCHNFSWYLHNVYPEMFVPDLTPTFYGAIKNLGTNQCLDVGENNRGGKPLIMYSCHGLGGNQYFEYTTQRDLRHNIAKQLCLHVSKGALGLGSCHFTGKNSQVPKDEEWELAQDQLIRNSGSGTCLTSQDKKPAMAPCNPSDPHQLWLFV
Assay: co-immunoprecipitation from co-transfected COS-7 cells, anti-myc pull-down
Source text: To investigate that hypothesis, we designed two kinds of tagged-B7330N constructs to examine homo-oligomerization. pCAGGS-B7330N-HA and pcDNA3.1-B7330N-myc were co-transfected into COS-7 cells and co-immunoprecipitated using anti-HA or anti-myc antibody, respectively.

B1: B7330N-HA (HA-tagged B7330N expressed from pCAGGS-B7330N-HA in COS-7 cells) (enzyme)
chain: T1 sequence
modifications: N-glycosylated at Asn-476
notes: Expressed by transfection in COS-7 cells and tested in cell lysates; also called GALNT6; UDP-N-acetyl-alpha-D-galactosamine: polypeptide N-acetylgalactosaminyltransferase 6; not shown: C-terminal HA tag from the pCAGGS-HA vector
binding result: binds
